This note sets out measurements from patent US20190153055A1.

The experiment has as its target receptor CCR1 (UniProt P32246). Put plainly: cell-based or functional assay.
UniProt P32246, sequence (P32246 whole entry): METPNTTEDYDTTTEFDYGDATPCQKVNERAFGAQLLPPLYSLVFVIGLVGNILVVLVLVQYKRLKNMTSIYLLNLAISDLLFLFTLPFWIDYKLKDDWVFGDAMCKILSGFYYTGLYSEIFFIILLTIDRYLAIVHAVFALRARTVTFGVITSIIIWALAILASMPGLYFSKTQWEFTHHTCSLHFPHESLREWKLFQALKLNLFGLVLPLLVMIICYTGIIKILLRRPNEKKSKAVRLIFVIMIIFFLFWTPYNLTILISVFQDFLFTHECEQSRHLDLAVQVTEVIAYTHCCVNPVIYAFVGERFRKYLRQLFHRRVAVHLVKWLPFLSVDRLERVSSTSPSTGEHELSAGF

Consider “CCL3 (D27A, Δ1, CCL3α) (from UniProt P10147 24-92) (ligand)”, for which the reactivity of the CCR1 receptor (Tango CCR1-bla U20S reporter cells, Blue/Green Emission ratio) worked out at 0.63 nM.
